{"source": "patent US20140271653A1", "about": "(Regeneron, published 2014)", "binders": {"B1": {"name": "Control I (palivizumab sequence) (antibody, V domains shown)", "VH": "QVTLRESGPALVKPTQTLTLTCTFSGFSLSTSGMSVGWIRQPPGKALEWLADIWWDDKKDYNPSLKSRLTISKDTSKNQVVLKVTNMDPADTATYYCARSMITNWYFDVWGAGTTVTVSS", "VL": "DIQMTQSPSTLSASVGDRVTITCKCQLSVGYMHWYQQKPGKAPKLLIYDTSKLASGVPSRFSGSGSGTEFTLTISSLQPDDFATYYCFQGSGYPFTFGGGTKLEIKR", "notes": "also called Control 1; SYNAGIS"}}, "key": {"[1]": {"biological_target": "T1, RSV-F of RSV subtype A strain A2 (1540) (respiratory syncytial virus subtype A, …, UniProt P03420 26-574)", "experiment": "cell-based or functional assay"}, "[2]": {"biological_target": "T1, RSV-F of RSV subtype A strain A2 (1540)", "experiment": "cell-based or functional assay", "remark": "listed apart in the source"}, "[3]": {"biological_target": "T1, RSV-F of RSV subtype A strain A2 (1540)", "experiment": "cell-based or functional assay", "remark": "listed apart in the source"}, "[4]": {"biological_target": "T2, RSV-F of RSV subtype A strain Long (respiratory syncytial virus subtype A, …, UniProt P12568 26-574)", "experiment": "cell-based or functional assay"}, "[5]": {"biological_target": "T3, RSV-F of RSV subtype B strain 1580 (respiratory syncytial virus subtype B, …)", "experiment": "cell-based or functional assay"}, "[6]": {"biological_target": "T4, RSV-F of RSV subtype B strain 9320 (respiratory syncytial virus subtype B, …)", "experiment": "cell-based or functional assay"}, "[7]": {"biological_target": "T1, RSV-F of RSV subtype A strain A2 (1540)", "experiment": "cell-based or functional assay", "remark": "listed apart in the source"}, "[8]": {"biological_target": "T3, RSV-F of RSV subtype B strain 1580", "experiment": "cell-based or functional assay", "remark": "listed apart in the source"}, "[9]": {"biological_target": "RSV-F S173Y of escape mutant RSV/A S173Y (respiratory syncytial virus subtype A, …, UniProt P03420 26-574)", "experiment": "cell-based or functional assay"}, "[10]": {"biological_target": "RSV-F S173T of escape mutant RSV/B S173T (respiratory syncytial virus subtype B, …)", "experiment": "cell-based or functional assay"}, "[11]": {"biological_target": "RSV-F T174K of escape mutant RSV/B T174K (respiratory syncytial virus subtype B, …)", "experiment": "cell-based or functional assay"}, "[12]": {"biological_target": "RSV-F S173T/T174K of escape mutant RSV/B S173T/T174K (respiratory syncytial virus subtype B, …)", "experiment": "cell-based or functional assay"}, "[13]": {"biological_target": "T1, RSV-F of RSV subtype A strain A2 (1540)", "experiment": "cell-based or functional assay", "remark": "listed apart in the source"}, "[14]": {"biological_target": "T2, RSV-F of RSV subtype A strain Long", "experiment": "cell-based or functional assay", "remark": "listed apart in the source"}, "[15]": {"biological_target": "T4, RSV-F of RSV subtype B strain 9320", "experiment": "cell-based or functional assay", "remark": "listed apart in the source"}, "[16]": {"biological_target": "RSV-F of RSV subtype B strain 18537 (respiratory syncytial virus subtype B, …, UniProt P13843 26-574)", "experiment": "cell-based or functional assay"}, "[17]": {"biological_target": "RSV-F of RSV subtype B strain 1400 (respiratory syncytial virus subtype B, …)", "experiment": "cell-based or functional assay"}, "[18]": {"biological_target": "RSV-F of RSV subtype B strain 1A2 (respiratory syncytial virus subtype B, …)", "experiment": "cell-based or functional assay"}, "[19]": {"biological_target": "RSV-F of RSV subtype A clinical isolate A2001/2-20 (respiratory syncytial virus subtype A, …)", "experiment": "cell-based or functional assay"}, "[20]": {"biological_target": "RSV-F of RSV subtype A clinical isolate A2001/3-12 (respiratory syncytial virus subtype A, …)", "experiment": "cell-based or functional assay"}, "[21]": {"biological_target": "RSV-F of RSV subtype A clinical isolate A1997/12-35 (respiratory syncytial virus subtype A, …)", "experiment": "cell-based or functional assay"}, "[22]": {"biological_target": "RSV-F of RSV subtype A clinical isolate A1998/3-2 (respiratory syncytial virus subtype A, …)", "experiment": "cell-based or functional assay"}, "[23]": {"biological_target": "RSV-F of RSV subtype A clinical isolate A1998/12-21 (respiratory syncytial virus subtype A, …)", "experiment": "cell-based or functional assay"}, "[24]": {"biological_target": "RSV-F of RSV subtype A clinical isolate A2000/3-4 (respiratory syncytial virus subtype A, …)", "experiment": "cell-based or functional assay"}, "[25]": {"biological_target": "T5, RSV-F.mmh (Respiratory Syncytial Virus)", "T5 construct": "also called recombinant RSV-F; soluble monomeric RSV-F", "experiment": "SPR (Biacore), mAb captured via Fc, soluble RSV-F.mmh injected, 25 C"}}}
{"binder": "B1", "values": [{"measurement": "IC50 of blocking viral fusion (antibody added after viral attachment at 4 C, infection read by ELISA)", "setting": "[1]", "result": 1, "unit": "nM"}, {"measurement": "IC50 [pM] for RSV A2 Neutralization, Trial 1", "setting": "[2]", "result": 1820, "unit": "pM"}, {"measurement": "IC50 [pM] for RSV A2 Neutralization, Trial 2", "setting": "[2]", "result": 950, "unit": "pM"}, {"measurement": "IC50 [pM] for RSV A2 Neutralization, Trial 3", "setting": "[2]", "result": 290, "unit": "pM"}, {"measurement": "IC50 [pM] for RSV A2 Neutralization, Trial 5", "setting": "[2]", "result": 160, "unit": "pM"}, {"measurement": "IC50 [pM] for RSV A2 Neutralization, Trial 6", "setting": "[2]", "result": 500, "unit": "pM"}, {"measurement": "IC50 [pM] for RSV A2 Neutralization, Trial 7", "setting": "[2]", "result": 250, "unit": "pM"}, {"measurement": "RSV-A2 (1540) Neutral. IC50 [pM]", "setting": "[3]", "result": 360, "unit": "pM"}, {"measurement": "RSV-Long Neutral. IC50 [pM]", "setting": "[4]", "result": 536, "unit": "pM"}, {"measurement": "RSV - 1580 Neutral. IC50 [pM]", "setting": "[5]", "result": 375, "unit": "pM"}, {"measurement": "RSV-9320 Neutral. IC50 [pM]", "setting": "[6]", "result": 460, "unit": "pM"}, {"measurement": "Neutralization IC50, pM (microneutralization, wt subtype A)", "setting": "[7]", "result": 1140, "unit": "pM"}, {"measurement": "Neutralization IC50, pM (microneutralization, wt subtype B)", "setting": "[8]", "result": 1900, "unit": "pM"}, {"measurement": "Neutralization IC50, pM (microneutralization, escape mutant)", "setting": "[9]", "result": 1710, "unit": "pM"}, {"measurement": "Neutralization IC50, pM (microneutralization, escape mutant)", "setting": "[10]", "result": 1900, "unit": "pM"}, {"measurement": "Neutralization IC50, pM (microneutralization, escape mutant)", "setting": "[11]", "result": 640, "unit": "pM"}, {"measurement": "Neutralization IC50, pM (microneutralization, escape mutant)", "setting": "[12]", "result": 980, "unit": "pM"}, {"measurement": "IC50 (pM), RSV micro-neutralization, A/A2", "setting": "[13]", "result": 2080, "unit": "pM"}, {"measurement": "IC50 (pM), RSV micro-neutralization, A/Long", "setting": "[14]", "result": 752, "unit": "pM"}, {"measurement": "IC50 (pM), RSV micro-neutralization, B/9320", "setting": "[15]", "result": 338, "unit": "pM"}, {"measurement": "IC50 (pM), RSV micro-neutralization, B/18537", "setting": "[16]", "result": 1190, "unit": "pM"}, {"measurement": "IC50 (pM), RSV micro-neutralization, B/1400", "setting": "[17]", "result": 113, "unit": "pM"}, {"measurement": "IC50 (pM), RSV micro-neutralization, B/1A2", "setting": "[18]", "result": 223, "unit": "pM"}, {"measurement": "IC50 (pM), RSV micro-neutralization, clinical isolate", "setting": "[19]", "result": 935, "unit": "pM"}, {"measurement": "IC50 (pM), RSV micro-neutralization, clinical isolate", "setting": "[20]", "result": 1260, "unit": "pM"}, {"measurement": "IC50 (pM), RSV micro-neutralization, clinical isolate", "setting": "[21]", "result": 478, "unit": "pM"}, {"measurement": "IC50 (pM), RSV micro-neutralization, clinical isolate", "setting": "[22]", "result": 344, "unit": "pM"}, {"measurement": "IC50 (pM), RSV micro-neutralization, clinical isolate", "setting": "[23]", "result": 580, "unit": "pM"}, {"measurement": "IC50 (pM), RSV micro-neutralization, clinical isolate", "setting": "[24]", "result": 899, "unit": "pM"}, {"measurement": "Kd", "setting": "[25]", "result": 38.1, "unit": "nM"}, {"measurement": "t½", "setting": "[25]", "result": 4, "unit": "min"}]}
